Data as given in patent US20010041670A1 (published 2001).

Tests used:
Thrombospondin-1 (TSP-1) [1] = molecular target: T1, Thrombospondin-1 (TSP-1) (human, UniProt P07996 19-1170); test: solid phase competition: 125I-TSP-1 binding to immobilized HRGP
T1 construct: mature; Native protein from human platelet releasate. 'Mature' is inferred from that source
Protocol: Solid phase binding assays were performed as described (18). […] Non-specific binding was determined by carrying out binding in the presence of excess unlabeled ligand.

Thrombospondin-1 (TSP-1) [2] = molecular target: T1, Thrombospondin-1 (TSP-1); test: cell-based or functional assay

T1 sequence (P07996 19-1170): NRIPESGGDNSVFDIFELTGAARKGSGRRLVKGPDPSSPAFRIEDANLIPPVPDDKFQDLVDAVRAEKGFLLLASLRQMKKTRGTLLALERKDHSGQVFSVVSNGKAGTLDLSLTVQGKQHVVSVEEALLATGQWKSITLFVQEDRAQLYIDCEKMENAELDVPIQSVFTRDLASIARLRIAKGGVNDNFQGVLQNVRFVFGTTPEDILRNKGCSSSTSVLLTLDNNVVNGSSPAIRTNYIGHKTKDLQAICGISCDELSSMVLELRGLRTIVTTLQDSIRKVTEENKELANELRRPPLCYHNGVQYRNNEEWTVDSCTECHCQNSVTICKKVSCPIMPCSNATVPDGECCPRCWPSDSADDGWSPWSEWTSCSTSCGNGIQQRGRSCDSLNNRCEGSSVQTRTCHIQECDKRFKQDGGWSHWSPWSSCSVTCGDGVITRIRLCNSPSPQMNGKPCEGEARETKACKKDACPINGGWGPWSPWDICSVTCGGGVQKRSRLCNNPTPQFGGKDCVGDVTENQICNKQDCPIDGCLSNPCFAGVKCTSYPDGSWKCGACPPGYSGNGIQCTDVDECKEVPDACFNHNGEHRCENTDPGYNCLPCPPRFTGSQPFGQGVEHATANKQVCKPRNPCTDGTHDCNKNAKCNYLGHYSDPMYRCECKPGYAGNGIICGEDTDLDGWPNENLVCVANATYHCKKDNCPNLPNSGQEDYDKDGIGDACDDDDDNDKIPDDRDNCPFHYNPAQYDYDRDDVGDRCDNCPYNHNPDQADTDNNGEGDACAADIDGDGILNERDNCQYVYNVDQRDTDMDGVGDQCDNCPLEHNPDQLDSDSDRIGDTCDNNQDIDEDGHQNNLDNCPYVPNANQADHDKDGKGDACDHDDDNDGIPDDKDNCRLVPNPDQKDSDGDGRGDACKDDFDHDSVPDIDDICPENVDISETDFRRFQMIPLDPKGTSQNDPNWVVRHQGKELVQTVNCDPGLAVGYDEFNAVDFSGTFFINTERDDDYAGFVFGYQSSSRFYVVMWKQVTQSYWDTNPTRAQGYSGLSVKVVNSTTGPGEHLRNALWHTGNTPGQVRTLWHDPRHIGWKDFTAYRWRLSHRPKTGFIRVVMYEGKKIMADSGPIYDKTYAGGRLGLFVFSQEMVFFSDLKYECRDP

binding result (Thrombospondin-1 (TSP-1) [1])	area of neovascularization relative to bFGF alone, corneal assay, pellets with bFGF, TSP-1 and HRGP (100 ng, HRGP:TSP-1 molar ratio 3:1) (Thrombospondin-1 (TSP-1) [2])	Binder
no binding		CD36 FP298-439 (other, UniProt P16671 298-439, looked up, also called GST-CD36 fusion protein; not shown: Glutathione-S-transferase fusion partner) KAFASPVENPDNYCFCTEKIISKNCTSYGVLDISKCKEGRPVYISLPHFLYASPDVSEPIDGLNPNEEEHRTYLDIEPITGFTLQFAKRLQVNLLVKPSEKIQVLKNLKRNYIVPILWLNETGTIGDEKANMFRSQVTGKIN
	82.5%	Histidine-rich glycoprotein (HRGP) (other, human, UniProt P04196 19-525, looked up) VSPTDCSAVEPEAEKALDLINKRRRDGYLFQLLRIADAHLDRVENTTVYYLVLDVQESDCSVLSRKYWNDCEPPDSRRPSEIVIGQCKVIATRHSHESQDLRVIDFNCTTSSVSSALANTKDSPVLIDFFEDTERYRKQANKALEKYKEENDDFASFRVDRIERVARVRGGEGTGYFVDFSVRNCPRHHFPRHPNVFGFCRADLFYDVEALDLESPKNLVINCEVFDPQEHENINGVPPHLGHPFHWGGHERSSTTKPPFKPHGSRDHHHPHKPHEHGPPPPPDERDHSHGPPLPQGPPPLLPMSCSSCQHATFGTNGAQRHSHNNNSSDLHPHKHHSHEQHPHGHHPHAHHPHEHDTHRQHPHGHHPHGHHPHGHHPHGHHPHGHHPHCHDFQDYGPCDPPPHNQGHCCHGHGPPPGHLRRRGPGKGPRPFHCRQIGSVYRLPPLRKGEVLPLPEANFPSFPLPHHKHPLKPDNQPFPQSVSESCPGKFKSGFPQVSMFFTHTFPK
